The source of these data is patent US20240327530A1 (ICHNOS SCIENCES, published 2024).

Test [1] concerns the target T1, Human IL-1RAP, membrane-bound on human cells (HaCaT, dermal fibroblasts, neutrophils, PBMC, whole blood) (human, UniProt Q9NPH3 21-570).
T1 construct: Endogenous protein on cells
T1 sequence: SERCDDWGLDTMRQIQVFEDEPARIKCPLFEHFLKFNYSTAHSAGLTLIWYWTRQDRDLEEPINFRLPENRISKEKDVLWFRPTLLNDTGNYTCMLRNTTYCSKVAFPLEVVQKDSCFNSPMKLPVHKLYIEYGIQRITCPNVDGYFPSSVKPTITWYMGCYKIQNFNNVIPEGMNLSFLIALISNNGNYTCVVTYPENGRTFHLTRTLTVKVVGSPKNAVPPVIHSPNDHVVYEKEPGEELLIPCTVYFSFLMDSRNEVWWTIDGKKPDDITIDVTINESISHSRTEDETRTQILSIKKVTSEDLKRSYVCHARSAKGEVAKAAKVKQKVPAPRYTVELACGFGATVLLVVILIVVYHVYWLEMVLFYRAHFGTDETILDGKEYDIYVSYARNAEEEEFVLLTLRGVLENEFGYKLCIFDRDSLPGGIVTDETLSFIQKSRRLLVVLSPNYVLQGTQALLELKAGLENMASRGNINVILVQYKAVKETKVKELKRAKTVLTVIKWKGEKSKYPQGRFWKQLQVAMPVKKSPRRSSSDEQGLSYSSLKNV
As to the kind of experiment: flow cytometry on HaCaT wild-type cells, anti-human IgG PE-Cyanine7, relative geometric MFI (isotype subtracted). As to the method: A dose-response of anti-human IL-1RAP_candidate_1 (●) or Isotype control_5 (▪) was incubated with various cell lines and cell types. Bound antibodies were detected with a monoclonal anti-human IgG PE-Cyanine7 secondary antibody. The graphs show the nonlinear sigmoidal regression binding curves (Relative Geometric Mean Fluorescence Intensity) for each cell lines. Each data point is a measurement for a given cell line. Multiple independent experiments were performed across several donors (HaCaT and HaCaT IL-1RAP KO: 4 and 3 independent experiments; Human Dermal Fibroblasts: 2 independent experiments—total of 5 donors; Human Neutrophil: 2 experiments—total of 6 donors; Cyno Dermal Fibroblasts: 2 independent experiment—total of 4 donors).
In brief, cells were harvested, counted, and plated at 50,000 cells/well in a 96-well round-bottom plate. […] The cells were gated based on size on FSC vs SSC and analyzed for PE-Cyanine7-geometric mean (geomean) fluorescence intensity using FLOWJO® software. Finally, relative geomean fluorescence intensity was calculated by subtracting fluorescence of anti-human IL-1RAP_candidate_1 per fluorescence of Isotype control_5. […]
Background: Flow cytometry measures light scatter and fluorescence of single cells or particles in a stream.

The target in test [2] is T2, Recombinant mouse IL-1RAP-his (Sino Biologicals, catalog no. 52657-M08H) (mouse, UniProt Q61730 21-350).
T2 construct: Bought; not shown: His tag of the bought protein
T2 sequence: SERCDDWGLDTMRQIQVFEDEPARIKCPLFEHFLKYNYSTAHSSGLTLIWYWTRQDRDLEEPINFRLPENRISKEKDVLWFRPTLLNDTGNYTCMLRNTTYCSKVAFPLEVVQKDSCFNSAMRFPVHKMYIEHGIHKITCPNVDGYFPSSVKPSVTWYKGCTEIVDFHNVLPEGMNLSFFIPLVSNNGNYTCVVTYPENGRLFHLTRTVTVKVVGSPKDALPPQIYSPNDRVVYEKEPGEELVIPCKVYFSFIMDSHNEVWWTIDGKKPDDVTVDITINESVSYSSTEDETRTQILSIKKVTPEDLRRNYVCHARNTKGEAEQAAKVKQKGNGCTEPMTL
Briefly: SPR, mouse IgG2a LALA captured by anti-mouse Fc, mouse IL-1RAP-his as analyte, 1:1 fit. As to the method: Surface plasmon resonance (SPR) was used to measure the binding affinities of mouse IgG2a LALA molecules for mouse IL-1RAP. Affinity was measured on a BIACORE™ T200 instrument (BIACORE™ GE […]®) at 25° C. and analyzed with the BIACORE™ T200 Evaluation Software (v3.1). Measurements were performed on Series S CM5 sensor chips (BIACORE™ T200, BIACORE™, GE […]®, catalog no. BR100530) coupled with anti-mouse IgG Fc (BIACORE™, GE […]®, catalog no. BR100838) using a commercial amine coupling kit (BIACORE™, GE […]®, catalog no. BR100050). SPR measurements were performed with commercially available recombinant mouse IL-1RAP-his (Sino Biologicals, catalog no. 52657-M08H). The affinity to mouse IL-1RAP was assessed by immobilizing anti-mouse IL-1RAP mouse IgG2a LALA molecule and using mouse IL-1RAP protein as analyte. Around 150 RU of mouse IgG2a LALA was captured on fc2 of a Series S CM5 sensor chip coupled with anti-mouse IgG Fc. Mouse IL-1RAP-his was injected in multi cycle kinetic at different concentrations ranging from 0.14 to 100 nM, in HBS-EP+ buffer (BIACORE™, GE […]®, catalog no. BR100669) at a flow rate of 30 μl/min for 3 min on fc1 and fc2 (fc1 being used as reference). Dissociation was monitored for 15 min. After each cycle, the surface was regenerated with 60 μl of regeneration solution provided with anti-mouse IgG Fc capture kit (BIACORE™ GE […]®, catalog no. BR100838). Experimental data were processed using the 1:1 Langmuir kinetic fitting model. Measurements included zero-concentration samples for referencing. Chi², U- and residual values were used to evaluate the quality of a fit between the experimental data and individual binding models.
In general terms: In SPR one partner is held on a chip, and binding of the other changes the refractive index at the surface.

B1: Anti-IL-1RAP-C8-RecC-ES-IgG1LALA (antibody, V domains shown)
VH: QVQLVQSGAEVKKPGSSVKVSCKASGSPAEPYAIQWVRQAPGQGLEWMGYIIPSLGGYDYAQKFQGRVTITADESTSTAYMELSSLRSEDTAVYYCARGQTLYESGRQFDIWGQGTLVTVSS
VL: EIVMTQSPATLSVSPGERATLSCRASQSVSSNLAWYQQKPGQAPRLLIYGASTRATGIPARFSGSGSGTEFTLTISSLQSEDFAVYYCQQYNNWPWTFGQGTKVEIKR
notes: also called ISB 880-C8-recC-ES
In the case of B1, the EC50 (read off the curve) (usually the concentration giving half of the maximal effect) in test [1] is around 0.1 µg/mL.

B2: Anti-IL-1RAP-C3-A3 mmIgG2a LALA (antibody, V domains shown)
VH: EVQLLESGGGLVQPGGSLRLSCAASGFIFSHYGMSWVRQAPGKGLEWVSAISYDGEGTLYADSVKGRFTISRDNSKNTLYLQMNSLRAEDTAVYYCARFRYYTAFDYWGQGTLVTVSS
VL: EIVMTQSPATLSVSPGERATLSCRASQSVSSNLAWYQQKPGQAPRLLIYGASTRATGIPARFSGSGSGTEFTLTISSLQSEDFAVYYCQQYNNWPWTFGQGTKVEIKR
notes: also called anti-IL-1RAP-C3-A3 mouse IgG2a LALA
For the molecule B2, in test [2], the Kd (in general, the equilibrium constant for the complex coming apart) is 545 pM; the koff (in general, the rate constant with which the complex falls apart) is 7.46e-05 s⁻¹; the kon – broadly, the second-order rate constant of association – was 138000 M⁻¹ s⁻¹.
